A short description of the series: self-splicing fitness, log relative to wild type (ln ratio); higher = more splicing; Tetrahymena group I intron in knt gene, E. coli kanamycin selection, DiMSum; sequences stand for … in CUCUCU…GGAGGGAAAAGUUAUCAGGCAUGCACCUGGUAGCUAGUCUUUAAACCAAUAGAUUGCAUCGGUUUAAAAGGCAAGACCGUCAAAUUGCGGGAAAGGGGUCAACAGCCGUUCAGUACCAAGUCUCAGGGGAAACUUUGAGAUGGCCUUGCAAAGGGUAUGGUAAUAAGCUGACGGACAUGGUCCUAACCACGCAGCCAAGUCCUAAGUCAACAGAUCUUCUGUUGAUAUGGAUGCAGUUCACAGACUAAAUGUCGGUCGGGGAAGAUGUAUUCUUCUCAUAAGAUAUAGUCGGACCUCUCCUUAAUGGGAGCUAGCGGAUGAAGUGAUGCAACACUGGAGCCGCUGGGAACUAAUUUGUAUGCGAAAGUAUAUUGAUUAGUUUUGGAGUACUCGUGGUCG
In short, it runs like this: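 Fitness was computed with DiMSum as the error-weighted combination of replicate fold changes, kanamycin versus none, each normalised to wild type. The library randomised all eight intron nucleotides of the P1ex region, with the intron placed in the knt kanamycin-resistance gene on pET-22b(+) in E. coli BL21(DE3). Six replicate transformations were grown overnight at 37°C or 30°C on LB agar with or without 25 μg/mL kanamycin, plus 100 μg/mL carbenicillin, 50 μM IPTG and 0.2% rhamnose. Pooled colonies were amplicon-sequenced on an Illumina HiSeq 2500.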

± gives the uncertainty stated by the source.

For UCGAAGCAAUAUUACGACGU, the “self-splicing fitness (ln)” value is -0.755 ± 0.1 (30 °C) and -0.205 ± 0.099 (37 °C).
As for GGAUAGCAAUAUUACGAUCU, the “self-splicing fitness (ln)” value was -1.25 ± 0.4 (30 °C) and -2.24 ± 0.43 (37 °C).
With UAGCAGCAAUAUUACGUCAC, the “self-splicing fitness (ln)” value reads like this: (30 °C) -4.49 ± 0.42; (37 °C) -2.46 ± 0.33.
In the case of ACAAAGCAAUAUUACGGUCC, the “self-splicing fitness (ln)” value runs as follows: (30 °C) -1.7 ± 0.11; (37 °C) -0.977 ± 0.16.
Take AGGUAGCAAUAUUACGGCGA: the “self-splicing fitness (ln)” value reads like this: (30 °C) -0.281 ± 0.015; (37 °C) -0.0476 ± 0.033.
For CGAGAGCAAUAUUACGUACU, the “self-splicing fitness (ln)” value (37 °C) was -0.953 ± 0.3.
Take GCUGAGCAAUAUUACGGAGC: the “self-splicing fitness (ln)” value reads like this: (30 °C) -3.49 ± 0.18; (37 °C) -1.7 ± 0.16.
Turning to CUGCAGCAAUAUUACGGAGG, the “self-splicing fitness (ln)” value reads like this: (30 °C) -2.5 ± 0.13; (37 °C) -2.03 ± 0.21.
Taken in the same sequence, the figures for CGAUAGCAAUAUUACGCAGA were -3.24 ± 0.21 and -1.75 ± 0.13.
Taken in the same sequence, the figures for AUCUAGCAAUAUUACGUCCU were -1.07 ± 0.078 and 0.137 ± 0.096.
Take AAUGAGCAAUAUUACGGUUC: the “self-splicing fitness (ln)” value is, setting by setting: (30 °C) -2.91 ± 0.15; (37 °C) -2.48 ± 0.18.
As for AGAAAGCAAUAUUACGGCGA, the “self-splicing fitness (ln)” value is, setting by setting: (30 °C) -0.0252 ± 0.17; (37 °C) -1.02 ± 0.14.
On to AAAGAGCAAUAUUACGUAGC, for which the “self-splicing fitness (ln)” value (30 °C) is -4.35 ± 0.27 and the “self-splicing fitness (ln)” value (37 °C) is -2.45 ± 0.24.
With UACUAGCAAUAUUACGAGGC, the “self-splicing fitness (ln)” value is, setting by setting: (30 °C) -3.01 ± 0.17; (37 °C) -2.27 ± 0.23.
Taken in the same sequence, the figures for ACGAAGCAAUAUUACGUUCA were -1.14 ± 0.05 and -0.417 ± 0.057.
Taken in the same sequence, the figures for AAACAGCAAUAUUACGGGAU were -2.65 ± 0.1 and -1.69 ± 0.087.
The like results for GGACAGCAAUAUUACGUUGU were, in that order, -3.63 ± 0.14 and -3.51 ± 0.18.
Regarding CGGUAGCAAUAUUACGACGA, the “self-splicing fitness (ln)” value reads like this: (30 °C) -1.46 ± 0.19; (37 °C) 0.22 ± 0.17.
AUUAAGCAAUAUUACGCUCC: the “self-splicing fitness (ln)” value reads like this: (30 °C) -1.04 ± 0.23; (37 °C) -0.859 ± 0.29.
Taken in the same sequence, the figures for CGCCAGCAAUAUUACGGCUG were -4.51 ± 0.36 and -1.67 ± 0.19.
The like results for UGGAAGCAAUAUUACGCUAC were, in that order, -4.5 ± 0.34 and -2.24 ± 0.21.
AAUAAGCAAUAUUACGGCCG: the “self-splicing fitness (ln)” value (30 °C) was -0.879 ± 0.12 and the “self-splicing fitness (ln)” value (37 °C) stood at 0.196 ± 0.2.
The like results for AUAAAGCAAUAUUACGCCCA were, in that order, 0.167 ± 0.18 and -0.307 ± 0.23.
The like results for AUUUAGCAAUAUUACGAAGC were, in that order, -2.88 ± 0.23 and -3.6 ± 0.46.
Taken in the same sequence, the figures for CACGAGCAAUAUUACGCUGU were -3.55 ± 0.18 and -3.31 ± 0.18.
Regarding UCAGAGCAAUAUUACGUGCG, the “self-splicing fitness (ln)” value (30 °C) is -2.9 ± 0.23 and the “self-splicing fitness (ln)” value (37 °C) is -0.826 ± 0.16.
The like results for UAUCAGCAAUAUUACGGUGU were, in that order, -1.35 ± 0.072 and -1.19 ± 0.098.
Turning to UUUAAGCAAUAUUACGGGAU, the “self-splicing fitness (ln)” value is -3.4 ± 0.21 (30 °C) and -1.95 ± 0.2 (37 °C).
Consider CCUAAGCAAUAUUACGAAUU, for which the “self-splicing fitness (ln)” value reads like this: (30 °C) -3.89 ± 0.22; (37 °C) -1.79 ± 0.21.
For AAGUAGCAAUAUUACGUCUU, the “self-splicing fitness (ln)” value by setting is: (30 °C) -0.577 ± 0.12; (37 °C) -0.48 ± 0.11.
Consider ACGCAGCAAUAUUACGGACU, for which the “self-splicing fitness (ln)” value (30 °C) is -0.613 ± 0.081 and the “self-splicing fitness (ln)” value (37 °C) was found to be 0.0817 ± 0.098.
UGACAGCAAUAUUACGGUAC: the “self-splicing fitness (ln)” value was -4.6 ± 0.36 (30 °C) and -2.85 ± 0.38 (37 °C).
The like results for CGAGAGCAAUAUUACGGCAU were, in that order, -3.2 ± 0.42 and -2.15 ± 0.46.
Turning to CUCCAGCAAUAUUACGUAAC, the “self-splicing fitness (ln)” value runs as follows: (30 °C) -3.3 ± 0.13; (37 °C) -3.08 ± 0.2.
Consider CGAUAGCAAUAUUACGUUUG, for which the “self-splicing fitness (ln)” value (30 °C) is -2.29 ± 0.081 and the “self-splicing fitness (ln)” value (37 °C) is -0.812 ± 0.081.
Taken in the same sequence, the figures for GAAGAGCAAUAUUACGUGCC were -3.3 ± 0.19 and -1.81 ± 0.23.
As for CGACAGCAAUAUUACGGCGU, the “self-splicing fitness (ln)” value by setting is: (30 °C) -3.22 ± 0.088; (37 °C) -1.59 ± 0.074.
Taken in the same sequence, the figures for UGCAAGCAAUAUUACGGCAU were -3.05 ± 0.29 and -2.1 ± 0.19.
Take AUGGAGCAAUAUUACGAGAA: the “self-splicing fitness (ln)” value (37 °C) is -1.43 ± 0.34.
As to UGAUAGCAAUAUUACGCCUA, the “self-splicing fitness (ln)” value (30 °C) is -0.439 ± 0.15 and the “self-splicing fitness (ln)” value (37 °C) was -0.227 ± 0.16.
In the case of CGUCAGCAAUAUUACGUUUG, the “self-splicing fitness (ln)” value reads like this: (30 °C) -1.14 ± 0.062; (37 °C) -0.102 ± 0.079.
CUACAGCAAUAUUACGGUAU: the “self-splicing fitness (ln)” value was -2.43 ± 0.08 (30 °C) and -1.31 ± 0.096 (37 °C).
GUAGAGCAAUAUUACGAAUG: the “self-splicing fitness (ln)” value is, setting by setting: (30 °C) -3.89 ± 0.3; (37 °C) -2.16 ± 0.21.
The like results for CCAGAGCAAUAUUACGGCCU were, in that order, -2.77 ± 0.13 and -1.27 ± 0.17.
With CAGUAGCAAUAUUACGUUGC, the “self-splicing fitness (ln)” value (30 °C) is -3.47 ± 0.34.
On to CCAUAGCAAUAUUACGGUUC, for which the “self-splicing fitness (ln)” value reads like this: (30 °C) -4.2 ± 0.46; (37 °C) -2.03 ± 0.35.
UCUUAGCAAUAUUACGCUAU: the “self-splicing fitness (ln)” value reads like this: (30 °C) -4.16 ± 0.25; (37 °C) -2.03 ± 0.18.
The like results for UACCAGCAAUAUUACGCUUG were, in that order, -1.01 ± 0.073 and -0.79 ± 0.095.
The like results for UAUUAGCAAUAUUACGAAAU were, in that order, -2.46 ± 0.35 and -1.53 ± 0.43.
Taken in the same sequence, the figures for GCAGAGCAAUAUUACGUAGA were -2.99 ± 0.15 and -1.78 ± 0.14.
As to AAGAAGCAAUAUUACGAGGC, the “self-splicing fitness (ln)” value reads like this: (30 °C) -3.86 ± 0.42; (37 °C) -2.48 ± 0.33.
Taken in the same sequence, the figures for UGGUAGCAAUAUUACGGCUC were -0.912 ± 0.12 and -0.984 ± 0.14.
As for UAAUAGCAAUAUUACGCCCG, the “self-splicing fitness (ln)” value (37 °C) is 0.42 ± 0.42.
Take GGGGAGCAAUAUUACGUGUC: the “self-splicing fitness (ln)” value was -3.68 ± 0.33 (30 °C) and -2.19 ± 0.18 (37 °C).
For CCAAAGCAAUAUUACGUCAC, the “self-splicing fitness (ln)” value (30 °C) was -4.61 ± 0.25 and the “self-splicing fitness (ln)” value (37 °C) is -2.14 ± 0.19.
Regarding AGUAAGCAAUAUUACGGUGG, the “self-splicing fitness (ln)” value (30 °C) was -3.68 ± 0.2 and the “self-splicing fitness (ln)” value (37 °C) was -1.66 ± 0.16.
The like results for GGAUAGCAAUAUUACGCUUU were, in that order, -2.1 ± 0.16 and -2.16 ± 0.21.
Consider UUGUAGCAAUAUUACGUGCG, for which the “self-splicing fitness (ln)” value by setting is: (30 °C) -1.77 ± 0.15; (37 °C) 0.0928 ± 0.14.
For the sequence UCCCAGCAAUAUUACGGUCG, the “self-splicing fitness (ln)” value was -1.76 ± 0.071 (30 °C) and -0.748 ± 0.078 (37 °C).
Regarding UUCCAGCAAUAUUACGGACU, the “self-splicing fitness (ln)” value reads like this: (30 °C) -2.17 ± 0.14; (37 °C) -0.74 ± 0.15.
Taken in the same sequence, the figures for CAUCAGCAAUAUUACGAUCU were -0.778 ± 0.06 and -0.771 ± 0.087.
With GGCGAGCAAUAUUACGUACU, the “self-splicing fitness (ln)” value by setting is: (30 °C) -0.65 ± 0.13; (37 °C) -0.094 ± 0.15.
The like results for CCACAGCAAUAUUACGCCAU were, in that order, -3.59 ± 0.2 and -1.36 ± 0.21.
In the case of UUACAGCAAUAUUACGGGUG, the “self-splicing fitness (ln)” value is -1.05 ± 0.061 (30 °C) and -0.414 ± 0.077 (37 °C).
The like results for CUCUAGCAAUAUUACGUAUG were, in that order, -3.02 ± 0.21 and -1.61 ± 0.15.
For GCCCAGCAAUAUUACGAUGA, the “self-splicing fitness (ln)” value is -2.14 ± 0.18 (30 °C) and -0.287 ± 0.14 (37 °C).
Taken in the same sequence, the figures for UCCAAGCAAUAUUACGUCCU were -4.09 ± 0.31 and -2.95 ± 0.43.
Taken in the same sequence, the figures for CUGAAGCAAUAUUACGCGUU were -3.36 ± 0.18 and -2.86 ± 0.24.
On to UUAAAGCAAUAUUACGGCGU, for which the “self-splicing fitness (ln)” value (30 °C) was -0.257 ± 0.068 and the “self-splicing fitness (ln)” value (37 °C) worked out at 0.33 ± 0.09.
Taken in the same sequence, the figures for CAUGAGCAAUAUUACGAGGC were -2.4 ± 0.2 and -2.34 ± 0.26.
Regarding CCGCAGCAAUAUUACGCAGC, the “self-splicing fitness (ln)” value reads like this: (30 °C) -3.86 ± 0.28; (37 °C) -1.62 ± 0.19.
For the sequence AAGUAGCAAUAUUACGGGAU, the “self-splicing fitness (ln)” value runs as follows: (30 °C) -3.14 ± 0.15; (37 °C) -1.61 ± 0.14.
Regarding UGACAGCAAUAUUACGGCGU, the “self-splicing fitness (ln)” value is, setting by setting: (30 °C) -2.71 ± 0.15; (37 °C) -1.67 ± 0.16.
The like results for GCCAAGCAAUAUUACGAUAC were, in that order, -2.45 ± 0.17 and -0.963 ± 0.14.
With AGUGAGCAAUAUUACGUAAG, the “self-splicing fitness (ln)” value reads like this: (30 °C) -3.1 ± 0.43; (37 °C) -2.48 ± 0.41.
UGGGAGCAAUAUUACGGUCA: the “self-splicing fitness (ln)” value reads like this: (30 °C) -0.375 ± 0.12; (37 °C) -0.291 ± 0.14.
